Laboratory results taken from PMC10411877.

Columns and labels:
GST-MAC3A [1] = biological target: T1, GST-MAC3A (Arabidopsis thaliana (Col), UniProt Q94BR4 1-523); assay: competition FLISA
T1 sequence: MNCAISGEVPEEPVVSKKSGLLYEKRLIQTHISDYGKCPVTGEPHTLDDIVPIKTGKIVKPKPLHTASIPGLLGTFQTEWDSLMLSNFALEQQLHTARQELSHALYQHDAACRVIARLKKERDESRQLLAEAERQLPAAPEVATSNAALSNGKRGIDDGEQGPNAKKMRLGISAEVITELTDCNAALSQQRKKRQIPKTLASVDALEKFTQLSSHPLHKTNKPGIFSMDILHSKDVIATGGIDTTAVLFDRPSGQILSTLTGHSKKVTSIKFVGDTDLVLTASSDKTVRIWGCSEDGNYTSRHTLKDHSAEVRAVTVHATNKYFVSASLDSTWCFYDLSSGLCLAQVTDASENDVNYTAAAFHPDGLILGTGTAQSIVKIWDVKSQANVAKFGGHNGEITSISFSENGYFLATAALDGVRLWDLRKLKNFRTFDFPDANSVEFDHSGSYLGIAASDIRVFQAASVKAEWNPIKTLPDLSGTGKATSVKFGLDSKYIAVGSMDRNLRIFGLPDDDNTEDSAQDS

GST-MAC3A [2] = biological target: T1, GST-MAC3A; assay: competition FLISA; remark: listed apart in the source
GST-MAC3A [3] = biological target: T1, GST-MAC3A; assay: FLISA

B1: cold pYUC8 (dsDNA)
DNA 1: CCTCTCCACGTGGCTTCCATTC
DNA 2: GAATGGAAGCCACGTGGAGAGG
binding result (GST-MAC3A [1]): binds

B2: cold pIAA19 (dsDNA)
DNA 1: ATCTGTTCCCTTAACCACCTTGT
DNA 2: ACAAGGTGGTTAAGGGAACAGAT
binding result (GST-MAC3A [2]): binds

B3: pIAA19biotin (dsDNA)
DNA 1: AATGACTCCACGTGTCGATATTG
DNA 2: CAATATCGACACGTGGAGTCATT
binding result (GST-MAC3A [3]): binds

B4: pYUC8biotin (dsDNA)
DNA 1: CCTCTCCACGTGGCTTCCATTC
DNA 2: GAATGGAAGCCACGTGGAGAGG
binding result (GST-MAC3A [3]): binds
